The target of one assay is T1, pE3-Aβ(3-18).
T1 peptide: [pGlu]FRHDSGYEVHHQKLV
As to the kind of experiment: SPR, antibody captured on goat anti-mouse IgG, peptide as analyte. An excerpt:
(§1) In order to bind analyzing antibodies K11 and K119 to a CMS sensor Chip (GE Healthcare, Product code BR100012), approximately 15,000-20,000 RU of goat anti mouse IgG (Thermo Fisher Scientific, PA1 28555) were immobilized first. To immobilize the anti-mouse IgG, the carboxymethylated dextran surface of the sensor chip was activated by mixing 0.1 M N-hydroxysuccinimide (NHS) with 0.4 M N-ethyl-N′-(dimethylaminopropyl)carbodiimide hydrochloride (EDC) 1:1. EDC/NHS was applied to the sensor chip for 10 minutes with a flow rate of 10 μl/min. Goat anti mouse IgG was diluted to 50 μg/ml in 10 mM Sodium acetate, pH 5.5 and injected for 2×3 minutes with a flow rate of 10 μl/min. After deactivation with 1 M ethanolamine, pH 8.5 for 2×7 minutes with a flow rate of 10 μl/min, 0.1 M glycine, pH 1.7 was applied to the sensor chip with a flow rate of 30 μl/min for 3 minutes, followed by a washing step with HBS-EP buffer (GE Healthcare, Product code BR100188).
(§2) Binding of about 2,000 RU anti isoAsp7-Aβ antibodies occurred with a flow rate of 10 μl/min. To achieve this, antibodies were diluted to 25 μg/ml in HBS-EP buffer and applied to the sensor chip, followed by washing with HBS-EP until the RU signal remains constant.
(§3) Kinetic constants were determined by applying Aβ peptides at different concentrations and calculated from the combined set of data by using BIAevaluation software (Biacore AB) (FIG. 2A and FIG. 3).

The target in a further assay is T2, isoD7-Aβ(1-40) (isoAsp at position 7).
T2 construct: Synthetic peptide
The assay is described as above.
Description: as §1, §2, §3

The target in a further assay is T3, pE3-isoD7-Aβ(3-18).
T3 peptide: [pGlu]FRH[βAsp]SGYEVHHQKLV
The description is as above.
Description: as §1, §2, §3

For the next assay, the target named is T4, Aβ(1-40).
T4 construct: Synthetic peptide; also called wildtype Aβ(1-40)
Described as above.
Description: as §1, §2, §3

For the next assay, the target named is T5, Mouse isoD7-Aβ(1-18) (mouse).
T5 peptide: DAEFGH[βAsp]SGFEVRHQKLV
The assay is described as above.
Description: as §1, §2, §3

Another assay addresses T6, Aβ(1-30).
T6 construct: also called non-modified Aβ peptide
Description: sandwich ELISA: K11 immobilised at 2 µg/ml as capture, peptide serially diluted, HRP-conjugated 4G8 as detection, absorbance 450/540 nm. On the procedure:
FIG. 8: Sandwich ELISA for quantification of isoAsp7-Aβ and total Aβ concentrations in biological samples. Capture antibodies K11 (A) and 3D6 (B) were diluted to 2 μg/ml and immobilized on microtiter plates overnight at 4° C. Blocking occurred for 2 hours at room temperature. isoD7-Aβ(1-30) (SEQ ID NO: 51) and Aβ(1-30) (SEQ ID NO: 52) were serially diluted and added to the wells in duplicate. After an incubation period of 2 hours at 4° C., plates were washed six times with TBS-T. HRP-conjugated anti Aβ antibody clone 4G8 was added in a final concentration of 1 μg/ml and incubated for 1 hour at 4° C. After washing with TBS-T, a color reaction with TMB was performed and stopped by the addition of 1.2 N H₂SO₄. The standard curve was calculated from measured absorption at 450/540 nm by a 4-Parameter-Logistic-Fit: y=(A2+(A1−A2)/(1+(x/x₀)\hat{ }p).
In order to determine the amounts of isoD7-Aβ in biological samples, an indirect Sandwich ELISA was established. Therefore, K11 was diluted in PBS to 2μg/ml and immobilized on polystyrene 96-well microtiter plates overnight at 4° C. Blocking occurred for 2 hours at 4° C. with ELISA Blocker (Thermo Fisher Scientific). […] Absorption at 450/540 nm was determined by a Tecan Sunrise plate reader. The standard curve was calculated from measured absorption by a 4-Parameter-Logistic-Fit: y=(A2+(A1−A2)/(1+(x/x0)\hat{ }p).

Assay [1] deals with T7, Aβ(1-18) (human).
T7 construct: also called wildtype peptide Aβ(1-18)
T7 peptide: DAEFRHDSGYEVHHQKLV
Description: SPR, antibody captured on goat anti-mouse IgG, peptide as analyte; SPR. The protocol:
(§4) FIG. 2: Determination of binding constants of immobilized K11 with different Aβ-peptides by SPR analysis. 1,500-2,000 RU of antibody K11 were immobilized on a CMS chip by binding to goat anti mouse IgG. Monomeric Aβ peptides were injected in varying concentrations. KD values were calculated by using single-cycle kinetic analysis of BIAevaluation software. A—isoD7-Aβ(1-18) was applied at 1 nM, 3 nM, 9 nM, 27 nM, 81 nM and 243 nM. B—isod7-Aβ(1-17) was applied at 1 nM, 3 nM, 9 nM, 27 nM, 81 nM and 243 nM. C—Aβ(1-18) was applied at […], 30 nM, 90 nM, 270 nM, 810 nM and 2430 nM.
as §1, with “After deactivation with 1 M ethanolamine, pH 8.5 for 2×7 minutes with a flow rate of 10 μl/min, 0.1 M glycine, pH 1.7 was applied to the sensor chip with a flow rate of 30 μl/min for 3 minutes, followed by a washing step with HBS-EP buffer (GE Healthcare, Product code BR100188).” left out
(In general: SPR reads the build-up and loss of mass on a sensor chip optically.)

The target in another assay is T8, isod7-Aβ(1-17) (human, D-isoaspartate at position 7).
T8 construct: also called D-isoaspartate isomer containing peptide derivative
T8 peptide: DAEFRHXSGYEVHHQKL
The assay is described as above. The protocol: as §4
as §1, with “After deactivation with 1 M ethanolamine, pH 8.5 for 2×7 minutes with a flow rate of 10 μl/min, 0.1 M glycine, pH 1.7 was applied to the sensor chip with a flow rate of 30 μl/min for 3 minutes, followed by a washing step with HBS-EP buffer (GE Healthcare, Product code BR100188).” left out

For assay [2], the target named is T7, Aβ(1-18). Description: SPR, antibody captured on goat anti-mouse IgG, peptide as analyte; SPR; very weak, KD 931,000 nM.
Description: as §1
Binding of about 2,000 RU anti isoAsp7-Aβ antibodies occurred with a flow rate of 10 μl/min. […]
as §3

Numbered stars: 1 amine (or outer) side, 2 acyl side, 3 side chain; on linkers, the order of the positions; unused ones are H or OH. Square brackets hold non-standard residues; d marks the D form. Ends that are not written are not given here. βAsp = O=C(O)[C@H](CC(=O)[*:2])N[*:1]; pGlu = O=C1CC[C@@H](C(=O)O)N1

T4 sequence (peptide, as listed by the source): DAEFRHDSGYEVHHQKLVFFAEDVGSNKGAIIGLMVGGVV
T6 sequence (peptide, as listed by the source): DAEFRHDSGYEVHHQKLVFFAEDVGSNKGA
T2 sequence (peptide, as listed by the source): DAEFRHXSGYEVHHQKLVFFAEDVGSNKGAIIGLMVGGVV

B1: monoclonal antibody K11 (antibody, mouse IgG1, kappa, V domains shown)
VH: QVQLKESGPGLVAPSQSLSITCTVSGFSLTSYGVHWVRQPPGKGLEWLGALWASGNTDYSSTLMSRLSISKDNSKSQVFLKMNSLQTDDTAMYYCARDRGILTGGYFDVWGAGTTVTVSS
VL: DIVMSQSPTSLAVSAGEKVTMSCKSSQSLLNSRNRKNYLAWYQQKPGQSPKLLIYWASTRDSGVPDRFTGSGSGTDFTLTISSVQAEDLAVYYCKQSYNLRTFGGGTKLEIKR
notes: Mouse monoclonal antibody from a hybridoma; also called clone K11; anti isoAsp7-Aβ antibody K11
The term Kd denotes a measure of binding affinity in units of concentration. For B1, the Kd with pE3-Aβ(3-18) amounted to 0.402 µM; with isoD7-Aβ(1-40), 0.0035 µM; with pE3-isoD7-Aβ(3-18), 0.0017 µM; with Aβ(1-40), 1.67 µM; with Mouse isoD7-Aβ(1-18) it was 0.153 µM; with Aβ(1-18) [1], 2.7 µM. In addition, binding with isod7-Aβ(1-17) was characterised by a dissociation constant (Kd) of 2.69 µM. Further, the binding result with Aβ(1-30) is “no binding (tested: 140 pg/ml)”.

B2: monoclonal antibody K119 (antibody, mouse IgG2a, kappa, V domains shown)
VH: EVKLVESGGGLVQPGGSLRLSCATSGFTFTDYYMSWVRQPPGKALEWLGFIRNKANGYTTEYSASVKGRFTISRDNSQSILYLQMNTLRTEDSATYYCTRDIPTIMDYWGQGTSVTVSS
VL: DIVMSQSPSSLAVSAGEKATMSCKSSQSLFNSRTRKNYVAWLQQKPGQSPKLLISWASTRESGVPDRFTGSGSGTDFALTITNVQAEDLAVYYCKQSYNLRAFGGGTKLEITR
notes: Mouse monoclonal antibody from a hybridoma
Turning to B2, the affinity with Aβ(1-18) [2], expressed as Kd, was 931 µM.

The record behind these values is patent publication US20200264197A1 (FRAUNHOFER GESELLSCHAFT ZUR F RDERUNG DER ANGEWANDTEN …, published 2020).
